Assay results reported in patent publication US20190359697A1 (Scripps Research, published 2019).

T1: CD19 (UniProt P15391 20-556)
T1 chain: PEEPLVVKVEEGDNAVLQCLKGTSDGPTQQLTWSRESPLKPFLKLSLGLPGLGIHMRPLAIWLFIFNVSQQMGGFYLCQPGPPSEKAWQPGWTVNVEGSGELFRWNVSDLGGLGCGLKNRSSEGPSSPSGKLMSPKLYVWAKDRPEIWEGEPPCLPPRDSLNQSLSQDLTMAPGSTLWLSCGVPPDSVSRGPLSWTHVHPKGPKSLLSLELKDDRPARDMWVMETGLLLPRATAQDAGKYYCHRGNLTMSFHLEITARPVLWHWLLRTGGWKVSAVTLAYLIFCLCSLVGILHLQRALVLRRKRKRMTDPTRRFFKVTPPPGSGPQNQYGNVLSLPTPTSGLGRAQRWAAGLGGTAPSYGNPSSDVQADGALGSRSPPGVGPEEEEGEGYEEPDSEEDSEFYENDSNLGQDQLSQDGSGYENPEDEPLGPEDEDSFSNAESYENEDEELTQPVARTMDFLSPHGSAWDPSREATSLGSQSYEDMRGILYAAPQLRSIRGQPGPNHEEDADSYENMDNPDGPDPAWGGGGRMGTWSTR

T2: CD19 (UniProt P15391 20-556, limits assumed)
T2 sequence (looked up): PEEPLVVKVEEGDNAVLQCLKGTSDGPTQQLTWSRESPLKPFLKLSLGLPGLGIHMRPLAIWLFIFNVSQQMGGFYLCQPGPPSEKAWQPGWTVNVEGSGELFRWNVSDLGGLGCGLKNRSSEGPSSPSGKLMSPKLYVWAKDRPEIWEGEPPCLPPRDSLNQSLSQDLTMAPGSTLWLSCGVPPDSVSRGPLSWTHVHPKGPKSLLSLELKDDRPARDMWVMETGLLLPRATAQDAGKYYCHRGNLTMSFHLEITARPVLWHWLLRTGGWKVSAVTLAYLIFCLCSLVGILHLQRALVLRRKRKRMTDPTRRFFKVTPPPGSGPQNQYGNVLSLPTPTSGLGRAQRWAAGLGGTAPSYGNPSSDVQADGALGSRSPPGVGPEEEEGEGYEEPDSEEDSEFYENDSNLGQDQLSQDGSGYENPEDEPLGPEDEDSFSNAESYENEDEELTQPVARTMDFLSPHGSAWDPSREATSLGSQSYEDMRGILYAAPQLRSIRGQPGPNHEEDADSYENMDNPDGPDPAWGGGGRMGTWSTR


Legend:
CD19 [1] = target: T1, CD19; assay: flow
CD19 [2] = target: T2, CD19; assay: cell-based or functional assay
CD19 [3] = target: T1, CD19; assay: flow cytometry cell binding; FIG. 5; WT switch (no PNE)

Binder | EC50 (CD19 [1]) | EC50 of cytotoxicity (LDH), sCAR-T cells + switch vs CD19+ RS4;11, Average of the repeat assays (CD19 [2]) | EC50 of cytotoxicity (LDH), sCAR-T cells + switch vs CD19+ RS4;11, assay DTR-5-15 (PBMC) (CD19 [2]) | EC50 of cytotoxicity (LDH), sCAR-T cells + switch vs CD19+ RS4;11, assay DTR-5-16 (CD4:CD8) (CD19 [2]) | EC50 of cytotoxicity (LDH), sCAR-T cells + switch vs CD19+ RS4;11, assay DTR-5-50 (PBMC) (CD19 [2]) | EC50 of cytotoxicity (LDH), sCAR-T cells + switch vs CD19+ RS4;11, assay DTR-5-51 (CD4:CD8) (CD19 [2]) | EC50 (CD19 [3])
hFMCL2b/H4c(Q1E-V20L)-WT (antibody, V domains shown) VH: EVQLQESGPGLVKPSETLSLTCTVSGVSLPDYGVSWIRQPPGKGLEWLGVIWGSETTYYNSALKSRLTISKDNSKNQVSLKMSSLTAADTAVYYCAKHYYYGGSYAMDYWGQGTLVTVSS VL: DIQMTQSPSSLSASVGDRVTITCRASQDISKYLNWYQQKPGKAVKLLIYHTSRLHSGVPSRFSGSGSGTDYTLTISSLQPEDFATYFCQQGATLPYTFGQGTKLEIK | 1180 pM | 13 pM | 7.52 pM | 15.3 pM | 14.4 pM | 14.8 pM | –
hFMCL2/H3 WT (antibody, V domains shown) VH: QVQLQESGPGLVKPSETLSVTCTVSGVSLPDYGVSWIRQPPGKGLEWLGVIWGSETTYYNPSLKSRLTISKDNSKNQVSLKMSSLTAADTAVYYCARHYYYGGSYAMDYWGQGTLVTVSS VL: DIQMTQSPSSLSASVGDRVTITCRASQDISKYLNWYQQKPGKAPKLLIYHTSRLHSGVPSRFSGSGSGTDYTLTISSLQPEDFATYYCQQGATLPYTFGQGTKLEIK | – | 87.6 pM | 139 pM | 77.1 pM | 61.4 pM | 72.6 pM | 23900 pM
hFMCL2b/H4b-x-(Q1E)-WT (antibody, V domains shown) VH: EVQLQESGPGLVKPSETLSLTCTVSGVSLPDYGVSWIRQPPGKGLEWIGVIWGSETTYYNPSLKSRVTISKDNSKNQFSLKLSSVTAADTAVYYCAKHYYYGGSYAMDYWGQGTLVTVSS VL: DIQMTQSPSSLSASVGDRVTITCRASQDISKYLNWYQQKPGKAVKLLIYHTSRLHSGVPSRFSGSGSGTDYTLTISSLQPEDFATYFCQQGATLPYTFGQGTKLEIK | 1870 pM | 53.8 pM | 29.6 pM | 77.6 pM | 43.8 pM | 63.9 pM | –
hFMCL2-LCNT/hFMCH4b (Fab, V domains shown) VH: QVQLQESGPGLVKPSETLSVTCTVSGVSLPDYGVSWIRQPPGKGLEWLGVIWGSETTYYNPSLKSRLTISKDNSKNQVSLKMSSLTAADTAVYYCAKHYYYGGSYAMDYWGQGTLVTVSS VL: DIQMTQSPSSLSASVGDRVTITCRASQDISKYLNWYQQKPGKAPKLLIYHTSRLHSGVPSRFSGSGSGTDYTLTISSLQPEDFATYYCQQGATLPYTFGQGTKLEIK | – | 15.6 pM | 21.4 pM | 7.43 pM | 18.7 pM | 14.6 pM | –
hFMCL2b/H4b(Q1E-V20L)-WT (antibody, V domains shown) VH: EVQLQESGPGLVKPSETLSLTCTVSGVSLPDYGVSWIRQPPGKGLEWLGVIWGSETTYYNPSLKSRLTISKDNSKNQVSLKMSSLTAADTAVYYCAKHYYYGGSYAMDYWGQGTLVTVSS VL: DIQMTQSPSSLSASVGDRVTITCRASQDISKYLNWYQQKPGKAVKLLIYHTSRLHSGVPSRFSGSGSGTDYTLTISSLQPEDFATYFCQQGATLPYTFGQGTKLEIK | 875 pM | 9.96 pM | 9.63 pM | 13.1 pM | 7.48 pM | 9.6 pM | –
hFMCL2-LCNT/hFMCH4c (Fab, V domains shown) VH: QVQLQESGPGLVKPSETLSVTCTVSGVSLPDYGVSWIRQPPGKGLEWLGVIWGSETTYYNSALKSRLTISKDNSKNQVSLKMSSLTAADTAVYYCAKHYYYGGSYAMDYWGQGTLVTVSS VL: DIQMTQSPSSLSASVGDRVTITCRASQDISKYLNWYQQKPGKAPKLLIYHTSRLHSGVPSRFSGSGSGTDYTLTISSLQPEDFATYYCQQGATLPYTFGQGTKLEIK | – | 18 pM | 16.6 pM | 16 pM | 9.2 pM | 30.1 pM | –
hFMCL2b/H4c(Q1E)-WT (antibody, V domains shown) VH: EVQLQESGPGLVKPSETLSVTCTVSGVSLPDYGVSWIRQPPGKGLEWLGVIWGSETTYYNSALKSRLTISKDNSKNQVSLKMSSLTAADTAVYYCAKHYYYGGSYAMDYWGQGTLVTVSS VL: DIQMTQSPSSLSASVGDRVTITCRASQDISKYLNWYQQKPGKAVKLLIYHTSRLHSGVPSRFSGSGSGTDYTLTISSLQPEDFATYFCQQGATLPYTFGQGTKLEIK | 809 pM | 9.51 pM | 7.1 pM | 9.41 pM | 8.25 pM | 13.3 pM | –
hFMCL2b(V44L)/H4c(Q1E)-WT (antibody, V domains shown) VH: EVQLQESGPGLVKPSETLSVTCTVSGVSLPDYGVSWIRQPPGKGLEWLGVIWGSETTYYNSALKSRLTISKDNSKNQVSLKMSSLTAADTAVYYCAKHYYYGGSYAMDYWGQGTLVTVSS VL: DIQMTQSPSSLSASVGDRVTITCRASQDISKYLNWYQQKPGKALKLLIYHTSRLHSGVPSRFSGSGSGTDYTLTISSLQPEDFATYFCQQGATLPYTFGQGTKLEIK | 1720 pM | 7.45 pM | 2.04 pM | 8.45 pM | 7.01 pM | 12.3 pM | –
hFMCL2b(A92N)-LCNT/hFMCH4c(Q1E) (Fab, V domains shown) VH: EVQLQESGPGLVKPSETLSVTCTVSGVSLPDYGVSWIRQPPGKGLEWLGVIWGSETTYYNSALKSRLTISKDNSKNQVSLKMSSLTAADTAVYYCAKHYYYGGSYAMDYWGQGTLVTVSS VL: DIQMTQSPSSLSASVGDRVTITCRASQDISKYLNWYQQKPGKAVKLLIYHTSRLHSGVPSRFSGSGSGTDYTLTISSLQPEDFATYFCQQGNTLPYTFGQGTKLEIK | – | 9.92 pM | 8.73 pM | 9.19 pM | 6.55 pM | 15.2 pM | –
hFMCL2b/H4b(Q1E)-WT (antibody, V domains shown) VH: EVQLQESGPGLVKPSETLSVTCTVSGVSLPDYGVSWIRQPPGKGLEWLGVIWGSETTYYNPSLKSRLTISKDNSKNQVSLKMSSLTAADTAVYYCAKHYYYGGSYAMDYWGQGTLVTVSS VL: DIQMTQSPSSLSASVGDRVTITCRASQDISKYLNWYQQKPGKAVKLLIYHTSRLHSGVPSRFSGSGSGTDYTLTISSLQPEDFATYFCQQGATLPYTFGQGTKLEIK | 987 pM | 11.3 pM | 7.15 pM | 10.5 pM | 6.97 pM | 20.7 pM | –
hFMCL2b/H4c-x-(Q1E)-WT (antibody, V domains shown) VH: EVQLQESGPGLVKPSETLSLTCTVSGVSLPDYGVSWIRQPPGKGLEWIGVIWGSETTYYNSALKSRVTISKDNSKNQFSLKLSSVTAADTAVYYCAKHYYYGGSYAMDYWGQGTLVTVSS VL: DIQMTQSPSSLSASVGDRVTITCRASQDISKYLNWYQQKPGKAVKLLIYHTSRLHSGVPSRFSGSGSGTDYTLTISSLQPEDFATYFCQQGATLPYTFGQGTKLEIK | 17000 pM | 44.2 pM | 28.3 pM | 81.8 pM | 15.1 pM | 51.5 pM | –
